Data from article PMC10897367, “Functional and structural asymmetry suggest a unifying principle for catalysis in membrane-bound pyrophosphatases” (EMBO Reports, 2024).

Key:
[1] = biological target: the molecule itself; assay: crystal structure; PaPPase in DM with 2 mM IDP, vapour diffusion, 30-33% PEG 400, 0.1 M MES pH 6.5, 0.05 M LiSO4, 0.05 M NaCl, 20 °C; eight datasets combined, molecular replacement with a 5LZQ-based model
[2] = biological target: the molecule itself; assay: crystal structure; time-resolved cryo-trapping: TmPPase in OGNG crystallised with K4PPi and without Na+, soaked in a Na+ trigger solution for 0-3600 s, flash cooled; molecular replacement with 4AV3

Protein | binding result [1] | binding result [2]
K+-independent H+-pumping membrane-bound pyrophosphatase from Pyrobaculum aerophilum (PaPPase), wild type (enzyme, UniProt Q8ZWI8 1-721, looked up, No tag cleavage is mentioned; also called PaPPase:Mg5IDP; K+-independent H+-PPase; source: S. cerevisiae BJ1991, purified (hot-solve solubilisation, nickel-NTA; DM for crystals)) MNMISYALLGVILGISGVIYAVYLAVWVLRQDPGNEKMRFISQAIATGARAYLFRQYRTLAVLLVILAVLILVAIDMPRRTFGLTALAFIVGALGSMLAGYLGMYVTTRSASRVAQAAATGGMGKALLVSWRAGAVMGLSLASIALLLISGFYLVFRSVLPDDWAVPLVALGFGASLVTLFMRVGGGIYTKAADLGADLVGKVEAGIPEDDPRNPGVIADNVGDNVGDVAGMAADVYESYIVTVTAAIFLAAILGLPTQFIEAIILFAALALVATFAGVNLLKTTGVKHPLSSISLAIYATIGLSVVLFFIGAFTLGLDSTKALALAATTSLGAVIAPLIVKITDYYTSYNYGPVRKIAEQAKISPATVIITGYGVGLMSAIPVIAVIVAVLGISYMIGYYTVPVSGFGELSKYLAGIFGTAMASVGLLVVAGIIITADSYGPVSDNAGGVVEMAGLPDEVREITDVLDSVGNTTKATTKGYAIASAALAALVLFIALIFEIVYSASKILGKGIVDMISESLSGLQLINANVLIGAFLGVALVYFFSSRTLEAVGRTAMEIVEEIRRQFREKPGILEWKEQPDYARVVDIATRRALGEFLIPGLAAIVLPLITGLLLGWNALAGLIMGAIVAGVPRALLMANAGGAWDNAKKYIEIQGLKKTEMHKAAVIGDTVGDPMKDTVGPSLNPLIKVLNTLSVVFTYVIVSTNIALGIWPSGLLPF | binds | 
K+-dependent Na+-pumping membrane-bound pyrophosphatase from Thermotoga maritima (TmPPase), wild type (enzyme, UniProt Q9S5X0 1-726, looked up, No tag cleavage is mentioned; also called K+-dependent Na+-PPase; Na+-PPase; source: S. cerevisiae BJ1991, purified (hot-solve solubilisation, nickel-NTA; OGNG)) MYVAALFFLIPLVALGFAAANFAAVVRKPEGTERMKEISSYIRSGADSFLAHETKAIFKVAIVIAILLMIFTTWQTGVAFLLGAVMSASAGIVGMKMATRANVRVAEAARTTKKIGPALKVAYQGGSVMGLSVGGFALLGLVLVYLIFGKWMGQVDNLNIYTNWLGINFVPFAMTVSGYALGCSIIAMFDRVGGGVYTKAADMAADLVGKTELNLPEDDPRNPATIADNVGDNVGDVAGLGADLLESFVGAIVSSIILASYMFPIYVQKIGENLVHQVPKETIQALISYPIFFALVGLGCSMLGILYVIVKKPSDNPQRELNISLWTSALLTVVLTAFLTYFYLKDLQGLDVVGFRFGAISPWFSAIIGIFSGILIGFWAEYYTSYRYKPTQFLSKSSIEGTGMVISNGLSLGMKSVFPPTLTLVLGILFADYFAGLYGVAIAALGMLSFVATSVSVDSYGPIADNAGGISEMCELDPEVRKITDHLDAVGNTTAAIGKGFAIGSAIFAALSLFASYMFSQISPSDIGKPPSLVLLLNMLDARVIAGALLGAAITYYFSGYLISAVTKAAMKMVDEIRRQAREIPGLLEGKAKPDYNRCIEITSDNALKQMGYPAFIAILTPLVTGFLLGAEFVGGVLIGTVLSGAMLAILTANSGGAWDNAKKYLEAGNLEGYGKGSEPHKALVIGDTVGDPLKDTVGPSLDILIKIMSVVSVIAVSIFKHVHLF |  | binds
